Test results: patent US12553059B2, “Plant serine proteases” (priority 2018, dated 2026)
Entries after “also recorded” stand apart in the source; their conditions may differ.

Columns and labels:
HIV-1 UG37 gp140 = test: ELISA antigen binding of 2G12 (I19R 2G12 precomplexed with anti-Fc); settings: 2G12 (I19R variant) cleaved by apoplastic proteases
Protocol: A slightly modified ELISA procedure was used for the analysis of 2G12 containing an I19R mutation in the heavy chain (I19R 2G12). Wells were coated with 500 ng HIV-1 UG37 gp140 in PBS. […] (Doores K J et al. J Virol 84 (2010):10690-10699) prior to appropriate dilution and addition to the wells. Detection of antigen-bound mAb molecules was performed with 0.1 μg/mL goat anti-human kappa chain peroxidase conjugate (SIGMA-ALDRICH, A7164).

monoclonal antibody 2F5 = test: In vitro degradation assay with purified proteases, substrate 2F5; type: biochemical; settings: purified protease 10-100 μg/mL, pH 5.5
monoclonal antibody 2F5, sequence (as listed by the source): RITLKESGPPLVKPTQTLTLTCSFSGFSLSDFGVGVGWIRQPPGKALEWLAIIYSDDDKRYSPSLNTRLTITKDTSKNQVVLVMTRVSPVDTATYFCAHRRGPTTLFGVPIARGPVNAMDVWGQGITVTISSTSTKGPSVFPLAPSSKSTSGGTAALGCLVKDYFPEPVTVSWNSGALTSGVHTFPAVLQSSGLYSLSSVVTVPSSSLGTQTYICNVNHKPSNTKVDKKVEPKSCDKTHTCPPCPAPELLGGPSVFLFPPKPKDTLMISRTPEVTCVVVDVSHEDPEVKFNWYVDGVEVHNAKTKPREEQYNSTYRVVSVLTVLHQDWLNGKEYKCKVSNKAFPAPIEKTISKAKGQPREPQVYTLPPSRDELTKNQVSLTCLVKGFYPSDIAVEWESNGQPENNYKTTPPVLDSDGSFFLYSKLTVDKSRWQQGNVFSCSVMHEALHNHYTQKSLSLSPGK
Protocol: (§1) Leaves of Nicotiana benthamiana […] (Strasser R et al. Plant Biotechnol J 6 (2008):392-402) expressing a subtilisin-like serine protease construct were submerged in extraction buffer (50 mM sodium phosphate/200 mM KCl, pH 7.0) prior to vacuum exposure in a desiccator. Exogenous buffer was removed prior to centrifugation of the leaves for 15 min at 2000 g and 4° C. The recovered solution was then supplemented with 20 mM imidazole and loaded on a 1 mL column of Chelating Sepharose (GE […]) charged with Ni^2+ ions. After washing with the same buffer, the recombinant subtilisin-like serine protease was eluted with 250 mM imidazole in extraction buffer. Protein-containing eluate fractions were pooled, dialysed twice against 2 liters of extraction buffer and then concentrated by ultrafiltration using Microsep Advance centrifugal devices (10K MWCO; PALL CORPORATION).
(§2) After incubation for up to 16 h, reactions were stopped by addition of SDS-PAGE sample buffer.
(§3) For isolation of mAb degradation products, antibodies ([…]) were digested with apoplastic fluid or purified subtilisin-like serine proteases in 500 μL 100 mM sodium acetate (pH 5.5) to completion. After addition of 10 μL settled rProtein A Sepharose 4 Fast Flow beads, the samples were incubated for 2 h at 4° C. under constant agitation. The beads were then collected by centrifugation, washed four times with 500 μL PBS prior to elution of the bound antibody fragments with 100 μL 100 mM glycine (pH 3.0). The eluate was immediately neutralized with 10 μL 1 M Tris/HCl (pH 8.0). This elution/neutralization cycle was repeated four times. […]
(§4) N-terminal sequence analysis of bands blotted on polyvinylidene difluoride membranes (BIO-RAD) was performed by Edman degradation (Niemer M et al. Biotechnol J 9 (2014):493-500). […] Eluted polypeptides were analysed online on a maxis 4G ETD Q-TOF mass spectrometer (BRUKER, Billerica, USA) equipped with an electrospray ionization source and operated in the positive ion mode (m/z range: 400-3800). […]

I19R 2G12 = test: In vitro degradation assay with purified proteases, substrate I19R 2G12; type: biochemical; settings: for cleavage sites in I19R 2G12 heavy chain (arrows): N-terminal sequencing and mass spectrometry; for cleavage / degradation of I19R 2G12 by purified protease: purified protease 10-100 μg/mL, pH 5.5
I19R 2G12, sequence (as listed by the source, stated change not applied): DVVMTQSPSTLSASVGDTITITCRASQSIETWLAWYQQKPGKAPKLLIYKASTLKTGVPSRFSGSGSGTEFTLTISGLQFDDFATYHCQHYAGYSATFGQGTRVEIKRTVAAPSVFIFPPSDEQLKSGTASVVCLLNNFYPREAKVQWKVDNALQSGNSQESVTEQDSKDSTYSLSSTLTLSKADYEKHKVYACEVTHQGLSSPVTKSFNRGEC
I19R 2G12, sequence (as listed by the source, stated change not applied): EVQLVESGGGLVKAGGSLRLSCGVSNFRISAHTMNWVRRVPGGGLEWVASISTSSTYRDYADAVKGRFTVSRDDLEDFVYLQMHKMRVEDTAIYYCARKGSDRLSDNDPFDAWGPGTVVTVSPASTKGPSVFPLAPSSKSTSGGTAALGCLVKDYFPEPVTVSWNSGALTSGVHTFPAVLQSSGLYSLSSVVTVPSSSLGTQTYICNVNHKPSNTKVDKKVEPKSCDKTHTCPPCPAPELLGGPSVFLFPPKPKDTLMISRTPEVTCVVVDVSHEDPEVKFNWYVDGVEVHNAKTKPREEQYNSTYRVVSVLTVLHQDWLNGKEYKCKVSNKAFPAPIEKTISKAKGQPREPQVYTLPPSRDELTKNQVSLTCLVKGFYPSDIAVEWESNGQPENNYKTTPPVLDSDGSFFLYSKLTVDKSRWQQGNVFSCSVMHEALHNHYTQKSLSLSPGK
Protocol: as §1, §2
For isolation of mAb degradation products, antibodies ([…]) were digested with apoplastic fluid or purified subtilisin-like serine proteases in 500 μL 100 mM sodium acetate (pH 5.5) to completion. After addition of 10 μL settled rProtein A Sepharose 4 Fast Flow beads, the samples were incubated for 2 h at 4° C. under constant agitation. The beads were then collected by centrifugation, washed four times with 500 μL PBS prior to elution of the bound antibody fragments with 100 μL 100 mM glycine (pH 3.0). The eluate was immediately neutralized with 10 μL 1 M Tris/HCl (pH 8.0). This elution/neutralization cycle was repeated four times. All eluate fractions were combined and concentrated by ultrafiltration after buffer exchange into PBS containing 0.02% (v/v) NaN3.
Samples were fractionated by 12.5% SDS-PAGE under reducing conditions and then blotted on nitrocellulose membranes (GE […]).
as §4, with “(2014):493-500). Alternatively, antibodies or their degradation products were digested with PNGase F (ROCHE) to release their N-glycans, reduced with 10 mM DTE (1 h, 56° C.) and then fractionated on a THERMO PROSWIFT RP-4H column (250×0.20 mm) using a Dionex UltiMate 3000 HPLC system (THERMO […]).” for “(2014):493-500).”

PG9 = test: In vitro degradation assay with purified proteases, substrate PG9; type: biochemical; settings: for cleavage / degradation of PG9 by purified protease: purified protease 10-100 μg/mL, pH 5.5
PG9, sequence (as listed by the source): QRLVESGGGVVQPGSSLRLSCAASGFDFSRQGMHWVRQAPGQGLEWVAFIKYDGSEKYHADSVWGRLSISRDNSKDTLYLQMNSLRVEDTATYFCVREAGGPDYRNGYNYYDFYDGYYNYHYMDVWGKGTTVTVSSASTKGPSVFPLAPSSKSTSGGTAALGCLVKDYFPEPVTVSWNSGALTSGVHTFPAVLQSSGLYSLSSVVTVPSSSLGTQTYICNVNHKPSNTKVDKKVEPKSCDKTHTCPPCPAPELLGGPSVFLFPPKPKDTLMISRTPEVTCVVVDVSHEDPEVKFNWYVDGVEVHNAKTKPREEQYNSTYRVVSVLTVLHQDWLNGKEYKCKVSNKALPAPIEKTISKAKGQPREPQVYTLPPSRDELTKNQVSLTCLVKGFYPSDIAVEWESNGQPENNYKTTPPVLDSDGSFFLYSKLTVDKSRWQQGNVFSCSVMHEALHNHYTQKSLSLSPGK
Protocol: as §1, §2, §3, §4

SBT2 (SEQ ID No. 14) = test: Kinetic analysis of protease-inhibitor interactions, SBT2; type: biochemical, Nicotiana benthamiana; settings: recombinant inhibitor from E. coli; substrate Abz-VILDAVRA-Y(NO2)
SBT2 (SEQ ID No. 14), sequence (as listed by the source): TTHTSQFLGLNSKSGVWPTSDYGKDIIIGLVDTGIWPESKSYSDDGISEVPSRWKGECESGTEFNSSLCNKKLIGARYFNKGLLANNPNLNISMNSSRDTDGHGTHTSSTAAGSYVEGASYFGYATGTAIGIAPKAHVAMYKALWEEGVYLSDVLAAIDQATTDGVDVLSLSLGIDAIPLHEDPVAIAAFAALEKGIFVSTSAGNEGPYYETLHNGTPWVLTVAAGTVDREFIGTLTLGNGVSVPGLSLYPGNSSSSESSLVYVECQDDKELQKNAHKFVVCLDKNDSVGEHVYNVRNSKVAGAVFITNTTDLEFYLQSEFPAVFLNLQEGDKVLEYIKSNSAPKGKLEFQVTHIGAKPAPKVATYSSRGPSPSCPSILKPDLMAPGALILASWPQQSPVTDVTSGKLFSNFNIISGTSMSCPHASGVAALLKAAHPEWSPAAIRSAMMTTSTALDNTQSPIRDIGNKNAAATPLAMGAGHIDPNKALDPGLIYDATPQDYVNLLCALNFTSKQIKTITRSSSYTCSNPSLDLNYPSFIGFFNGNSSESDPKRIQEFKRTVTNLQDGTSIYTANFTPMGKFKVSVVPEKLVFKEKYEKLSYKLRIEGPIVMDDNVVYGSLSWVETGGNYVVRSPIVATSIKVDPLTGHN
Protocol: (§5) These assays were performed as described (Hohl M et al., 2017, J. Biol. Chem. 292, 6389-6401). A fluorogenic peptide substrate, Abz-[…]-Y(NO2) (SEQ ID NO: 37), was used for measuring the enzymatic activity of the subtilisin-like serine proteases tested. Recombinant inhibitors (prepared as described in Hohl M et al., 2017, J. Biol. Chem. 292, 6389-6401) were added in serial dilutions. Substrate cleavage was monitored in an Infinite M200 Pro microplate reader as increase in relative fluorescence (λex=320 nm; λem=420 nm). Inhibition constants (Ki) were calculated using the Morrison equation.

SBT1 (SEQ ID No. 2) = test: Kinetic analysis of protease-inhibitor interactions, SBT1; type: biochemical, Nicotiana benthamiana; settings: recombinant inhibitor from E. coli; substrate Abz-VILDAVRA-Y(NO2)
Protocol: as §5

| Molecule | cleavage / degradation of 2F5 by purified protease (monoclonal antibody 2F5) | cleavage sites in I19R 2G12 heavy chain (arrows) (I19R 2G12) | cleavage / degradation of I19R 2G12 by purified protease (I19R 2G12) | cleavage / degradation of PG9 by purified protease (PG9) | other results |
| --- | --- | --- | --- | --- | --- |
| 2G12: neutralizing anti-HIV antibody, heavy chain SEQ ID No. 24, light chain SEQ ID No. 28 | – | – | – | – | antigen-binding activity of cleaved vs intact antibody (ELISA) (HIV-1 UG37 gp140): severely reduced binding; also recorded: much lower antigen-binding activity |
| trypsin [reference compound] | did not display cleavage activity; also recorded: cannot cleave | – | – | – | – |
| SBT3: other serine protease (Cedzich A et al. 2009) (protein, UniProt O82777 113-761, looked up) Subtilisin-like protease SBT3: TTHTSDFLKLNPSSGLWPASGLGQDVIVAVLDSGIWPESASFQDDGMPEIPKRWKGICKPGTQFNASMCNRKLIGANYFNKGILANDPTVNITMNSARDTDGHGTHCASITAGNFAKGVSHFGYAPGTARGVAPRARLAVYKFSFNEGTFTSDLIAAMDQAVADGVDMISISYGYRFIPLYEDAISIASFGAMMKGVLVSASAGNRGPGIGSLNNGSPWILCVASGHTDRTFAGTLTLGNGLKIRGWSLFPARAFVRDSPVIYNKTLSDCSSEELLSQVENPENTIVICDDNGDFSDQMRIITRARLKAAIFISEDPGVFRSATFPNPGVVVNKKEGKQVINYVKNSVTPTATITFQETYLDTKPAPVVAASSARGPSRSYLGISKPDILAPGVLILAAYPPNVFATSIGTNILLSTDYILESGTSMAAPHAAGIAAMLKAAHPEWSPSAIRSAMMTTADPLDNTRKPIKDSDNNKAATPLDMGAGHVDPNRALDPGLVYDATPQDYVNLLCSLNFTEEQFKTIARSSASHNCSNPSADLNYPSFIALYSIEGNFTLLEQKFKRTVTNVGKGAATYKAKLKAPKNSTISVSPQILVFKNKNEKQSYTLTIRYIGDEGQSRNVGSITWVEQNGNHSVRSPIVTSPIIEVW | did not display cleavage activity; also recorded: cannot cleave | – | – | – | – |
| SBT1: Nicotiana benthamiana subtilisin-like serine protease comprising SEQ ID No. 2 (protein, listed as Nicotiana benthamiana) MKGIISLFFCFSLFIVSFILREADSASQAQNNGIYIVYMGAAASSNGGTRHDQARLISSLIRRNKHAVVHSYNNGFSGFAARLSESEAKSMAQRPGVISVFPDPVLQLHTTHSWDFLKYQTDEKINSSPSSGSDSSLIGADTIIGILDTGIWPESESFNDKDMGPIPSRWNGTCMDGQDFGSSKCNKKIVGARFYEESDDSGTKIAGSARDENGHGTHVASTAAGSPVAGASYYGLAAGTATGGSPGSRISMYRVCTTFGCRGSAIMKAFDDAIADGVDVLSLSLGSSPGLEPDFPSNPIAIGAFHAVEKGITVVCSAGNSGPGPKTVVNTAPWILTVAATTIDRDFETDIVLGGNKLIKGGGINFGNMTKSSVYPLIHGNSTKSNDNVSEADARSCVPGSLDENKVKGKIVLCENLDDGEYFPSDKLDEVKSRGGVGFILIDDDERTVAPKFNSFSAGVVSKKDGNEILAYINSTRNPVASILPTVSITKYKPAPVVAYFSSRGPAYNTPNLLKPDITAPGVAILAAWPGNDTSEALPGQKPPIFNLLSGTSMSCPHVSGIAATVKAVNPTWSPSAVKSAIMTTAIQTNNLKAPITTVSGSKATPYDIGAGEASTSGPLKPGLVYETDVADYLQFLCSVGFNISQIKLISITVPEDFSCPKNSTSELVSNMNYPSIAISSLKENEPKKVTRTVTNTGEEASVYTTVIEAPKGLEVQVIPTKLEFTNKSKKLSYDVSFKASSTSKEDLFGSITWTNGKYKVRSPFVVSSN | degrade; also recorded: can cleave the heavy chains | ↓TV and TV↓VT | degrade; also recorded: can cleave the heavy chains | degrade; also recorded: can cleave the heavy chains | cleavage sites in PG9 heavy chain (arrows) (PG9; N-terminal sequencing and mass spectrometry): DGYYNYHYM↓[…] |
| S11: S. lycopersicum subtilisin propeptide-like inhibitor, SEQ ID No. 33, recombinant from E. coli (protein, Protease inhibitor) MMKKDQILSSILLFFFLFTAFITTMADSQASSQPSNESKVHIVYTEQPKDQEPEEYHIKTLTSVLGSEEAAKEALLYSYKHAASGFSAKLTAEQVSELSKLPGVLQVVPSQTVQLHTGRV | – | – | – | – | binding affinity to / inhibition of SBT2 (SBT2 (SEQ ID No. 14)): high affinities; binding affinity to / inhibition of SBT1 (SBT1 (SEQ ID No. 2)): high affinities |
| SBT2: Nicotiana benthamiana subtilisin-like serine protease comprising SEQ ID No. 14 (protein, listed as Nicotiana benthamiana) MANHITLCIWLLFFFISIFSLAKSETYIIHMDLSAMPKAFSSHHNWYLTTLSSVSDSSTNHKDFLSSKLVYAYTNAIHGFSASLSPSELEAIKYSPGYVSSIKDISVKIDTTHTSQFLGLNSKSGVWPTSDYGKDIIIGLVDTGIWPESKSYSDDGISEVPSRWKGECESGTEFNSSLCNKKLIGARYFNKGLLANNPNLNISMNSSRDTDGHGTHTSSTAAGSYVEGASYFGYATGTAIGIAPKAHVAMYKALWEEGVYLSDVLAAIDQAITDGVDVLSLSLGIDAIPLHEDPVAIAAFAALEKGIFVSTSAGNEGPYYETLHNGTPWVLTVAAGTVDREFIGTLTLGNGVSVPGLSLYPGNSSSSESSLVYVECQDDKELQKNAHKFVVCLDKNDSVGEHVYNVRNSKVAGAVFITNTTDLEFYLQSEFPAVFLNLQEGDKVLEYIKSNSAPKGKLEFQVTHIGAKPAPKVATYSSRGPSPSCPSILKPDLMAPGALILASWPQQSPVTDVTSGKLFSNFNIISGTSMSCPHASGVAALLKAAHPEWSPAAIRSAMMTTSTALDNTQSPIRDIGNKNAAATPLAMGAGHIDPNKALDPGLIYDATPQDYVNLLCALNFTSKQIKTITRSSSYTCSNPSLDLNYPSFIGFFNGNSSESDPKRIQEFKRTVTNLQDGTSIYTANFTPMGKFKVSVVPEKLVFKEKYEKLSYKLRIEGPIVMDDNVVYGSLSWVETGGNYVVRSPIVATSIKVDPLTGHN | – | SD↓RL | capable of acting on; also recorded: can cleave the heavy chains | capable of acting on; also recorded: can cleave the heavy chains | – |
